Measured values from patent publication US20210047398A1, “ASPROSIN, A FAST-INDUCED GLUCOGENIC PROTEIN HORMONE” (Baylor College of Medicine, priority 2016, published 2021).

How the values were obtained:
POMC neurons = experiment: Whole-cell patch clamp recordings on POMC neurons; assay type: cell-based, mice
Description: Electrophysiology—Whole-cell patch clamp recordings were performed on identified AgRP neurons or POMC neurons in the brain slices containing the arcuate nucleus of the hypothalamus (ARH). In particular, to identify AgRP neurons, the inventors crossed Rosa26-tdTOMATO allele onto the regular AgRP-Cre mice (Tong et al., 2008) to generate AgRP-Cre/Rosa26-tdTOMATO mice, which express TOMATO selectively in AgRP/NPY neurons. In some studies, the inventors crossed NPY-GFP mice (Pinto et al., 2004) with NPS mice to generate NPY-GFP mice with or without the NPS mutation, and GFP-labelled neurons in the arcuate nucleus were recorded. In order to record POMC neurons, the inventors crossed Rosa26-tdTOMATO allele onto the POMC-CreERT2 mice (Berglund et al., 2013) to generate POMC-CreERT2/Rosa26-tdTOMATO mice, which express TOMATO selectively in mature POMC neurons upon tamoxifen induction (0.2 mg/g, i.p. 6 weeks of age). In some studies, the inventors also crossed the AgRP-DTR allele onto POMC-GFP mice, and these mice received DT or saline injections (described above) to generate mice with or without AgRP neurons ablated.
Six to twelve-week old mice were deeply anesthetized with isoflurane and transcardially perfused with a modified ice-cold sucrose-based cutting solution (pH 7.3) containing 10 mM NaCl, 25 mM NaHCO3, 195 mM Sucrose, 5 mM Glucose, 2.5 mM KCl, 1.25 mM NaH2PO4, 2 mM Na-Pyruvate, 0.5 mM CaCl2, and 7 mM MgCl2, bubbled continuously with 95% O2 and 5% CO2 (Ren et al., 2012). The mice were then decapitated, and the entire brain was removed and immediately submerged in the cutting solution. Slices (250 μm) were cut with a Microm HM 650V vibratome (Thermo Scientific). Three brain slices containing the arcuate nucleus were obtained for each animal (Bregma −2.06 mm to −1.46 mm; Interaural 1.74 mm to 2.34 mm), and recordings were made at levels throughout this brain region. The slices were recovered for 1 h at 34° C. and then maintained at room temperature in artificial cerebrospinal fluid (aCSF, pH 7.3) containing 126 mM NaCl, 2.5 mM KCl, 2.4 mM CaCl2, 1.2 mM NaH2PO4, 1.2 mM MgCl2, 11.1 mM glucose, and 21.4 mM NaHCO3) saturated with 95% O2 and 5% CO2 before recording.
Slices were transferred to a recording chamber and allowed to equilibrate for at least 10 min before recording. The slices were superfused at 34° C. in oxygenated aCSF at a flow rate of 1.8-2 ml/min. GFP or TOMATO-labeled neurons in the ARH were visualized using epifluorescence and IR-DIC imaging on an upright microscope (Eclipse FN-1, Nikon) equipped with a moveable stage (MP-285, Sutter Instrument). Patch pipettes with resistances of 3-5 MΩ were filled with intracellular solution (pH 7.3) containing 128 mM K-Gluconate, 10 mM KCl, 10 mM HEPES, 0.1 mM EGTA, 2 mM MgCl2, 0.05 mM Na-GTP and 0.05 mM Mg-ATP. Recordings were made using a MultiClamp 700B amplifier (Axon Instrument), sampled using Digidata 1440A and analyzed offline with pClamp 10.3 software (Axon Instruments). Series resistance was monitored during the recording, and the values were generally <10 MΩ and were not compensated. The liquid junction potential was +12.5 mV, and was corrected after the experiment. Data were excluded if the series resistance increased dramatically during the experiment or without overshoot for action potential. Currents were amplified, filtered at 1 kHz, and digitized at 20 kHz. Current clamp was engaged to test neural firing frequency and resting membrane potential (RM) at the baseline and puff delivered recombinant Asprosin (500 ms at various concentrations indicated in the figures). For the asprosin antibody pre-incubation experiment, asprosin and anti-asprosin mAB or IgG were gently mixed at a 1:100 ratio, and then kept on ice for one hour before recording. After AgRP or POMC neuron response to asprosin alone was confirmed, the mixture of recombinant asprosin and anti-asprosin mAB or IgG was perfused to treat the AgRP or POMC neurons for 4 minutes. […]

[1] = Food intake, energy expenditure and body composition after asprosin gain-of-function; assay type: in vivo, mice
Description: Mouse food intake and energy expenditure—Food intake and energy expenditure were measured using the CLAMS System (Comprehensive Lab Animal Monitoring System, Columbus Instruments). Animals were acclimatized in the recording chambers for 48-72 hours, and measurements were taken subsequently for 24 hours during the light cycle and dark cycle. Mice received food and water ad libitum, or after an overnight fast where indicated. Oxygen consumption and food intake were recorded.
As previously described (Yan et al., 2016), male mice were anesthetized with inhaled isoflurane and stainless steel cannulas (Plastics One) were inserted into the lateral ventricles (0.34 mm caudal and 1 mm lateral from bregma; depth, 2.3 mm). […] These mice received 10 ng GFP ([…]) twice a day for 3 continuous days, and 10 ng asprosin (in […]) the last day. The BioDAQ food intake monitoring system (Research Diets, Inc) was used to monitor the food intake, and the food intake from the last GFP injection and asprosin were compared.
Mouse body composition—Body composition was analyzed using an ECHO-MRI system (Echo medical systems, Texas) or DEXA scans where indicated. Lean mass, fat mass, and overall body weight were calculated using the manufacturer-provided software.

[2] = daily subcutaneous doses for 10 days

B1: recombinant asprosin: 146 amino acid E. coli expressed fusion protein: 6 amino acid N-terminal His tag and 140 amino acid wild type asprosin (FBN1 2732-2871) (protein)
chain: HHHHHHSTNETDASNIEDQSETEANVSLASWDVEKTAIFAFNISHVSNKVRILELLPALTTLTNHNRYLIESGNEDGFFKINQKEGISYLHFTKKKPVAGTYSLQISSTPLYKKKELNQLEDKYDKDYLSGELGDNLKMKIQVLLH
- miniature inhibitory post-synaptic current (mIPSC) in POMC neurons (POMC neurons): increased the frequency but not amplitude
- POMC neuron firing frequency with AgRP neuron ablation (POMC neurons; AgRP neuron ablated mice): little effect
- asprosin-mediated hyperpolarization in POMC neurons with AgRP neuron ablation (POMC neurons; AgRP neuron ablated mice): completely prevented
- POMC neuron hyperpolarization with blockade of glutamatergic inputs (POMC neurons; TTX + CNQX + AP5): did not affect
- ability to hyperpolarize POMC neurons, GABAergic input (POMC neurons; TTX + bicuculline): dependent on intact GABAergic input
- proportion of POMC neurons inhibited (POMC neurons; reduced resting membrane potential and firing frequency): ~85%
- orexigenic effect in mice with AgRP neuron ablation ([1]; IP injection, 24 hours cumulative food intake): completely eliminated
- adiposity (fat mass) [1, 2]: increase in adiposity
- energy expenditure [1, 2]: no change in energy expenditure
- food intake [1, 2]: expected hyperphagia
- food intake after intracerebroventricular (ICV) injection ([1]; dark phase, 10 ng ICV): orexigenic effect
- food intake (FIG. 17) ([1]; mice injected with asprosin): hyperphagia
- hypophagia of NPS mice ([1]; single subcutaneous dose): sufficient to completely rescue the hypophagia
- latent phase prior to orexigenic effect ([1]; single subcutaneous dose): latent phase of several hours
- food intake over the next 24-hr ([1]; single subcutaneous dose, C57Bl/6 mice, vs GFP): greater food intake
